Laboratory results published in paper PMC6826516.

B1: LgBiT-TEAD1-Myc (TEAD1 aa 194-411), wild type [not stated] / SmBiT-TAZ-Flag (TAZ aa 13-119), wild type [not stated] (parent)
chain 1: PGQQVIHVTQDLDTDLEALFNSVMNPKPSSWRKKILPESFFKEPDSGSHSRQSSTDSSGGHPGPRLAGGAQHVRSHSSPASLQLGTGAGAAGSPAQQHAHLRQQSYD
chain 2: RSIGTTKLRLVEFSAFLEQQRDPDSYNKHLFVHIGHANHSYSDPLLESVDIRQIYDKFPEKKGGLKELFGKGPQNAFFLVKFWADLNCNIQDDAGAFYGVTSQYESSENMTVTCSTKVCSFGKQVVEKVETEYARFENGRFVYRINRSPMCEYMINFIHKLKHLPEKYMMNSVLENFTILLVVTNRDTQETLLCMACVFEVSNSEHGAQHHIYRLVKD

Variants of: B1
Test: NanoBiT assay (split-luciferase biosensor) in lysates of transfected HEK293T cells
Conditions: with SmBiT-TAZ-Flag (TAZ aa 13-119), 48 h after transfection, equal amounts of each biosensor plasmid, read off a plot

| response (fold over LgBiT-TEAD1 alone) | Variant |
| --- | --- |
| 37 | chain 2 E47A V49A I54A |
